The values below come from US20130053541A1, “METHODS FOR DISCOVERING MOLECULES THAT BIND TO PROTEINS” (LYNNTECH, INC., priority 2011, published 2013).

Where no end group is shown, it is not given here.

This assay concerns the target T1, native human ESRRG protein (Estrogen-receptor related receptor gamma) (human, UniProt P62508 229-458, limits assumed).
T1 construct: the screened protein is called 'native human ESRRG protein'; also called ESSRG; ERRγ
T1 sequence (looked up): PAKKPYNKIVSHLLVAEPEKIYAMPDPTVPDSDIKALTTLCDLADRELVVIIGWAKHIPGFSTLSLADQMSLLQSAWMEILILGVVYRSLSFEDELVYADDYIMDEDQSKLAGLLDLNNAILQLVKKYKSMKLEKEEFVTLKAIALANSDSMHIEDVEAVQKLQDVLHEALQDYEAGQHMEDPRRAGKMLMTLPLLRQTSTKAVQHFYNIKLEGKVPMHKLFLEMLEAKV
The assay can be described thus: peptide microarray, Iteration 2; bound ESRRG detected with fluorescent anti-ESRRG mAb. As for the experimental part:
Screening was carried out typically by hybridization of the protein (1 μg/mL) against the array for 1 h at 4° C.; detection of bound protein was carried out using a fluorescently labeled anti-ESRRG mAb. (Direct labeling of ESRRG and alternative detection strategies are equally valid).
Iterative sequence expansion and arraying of 10 highest binding ligands to ESRRG from Iteration 1 was carried out and the new peptide sequences were synthesized on an array and screened against the protein, as described above. In this step, the central 2 amino acids (core) in peptide sequences were maintained unchanged while outlying amino acids (2, 3, 6, and 7) were permuted (using Tier 1 and Tier 3 substitutions) in a ‘cipher’ or ‘combination’ lock approach.
In the case of Ac-GKSYPRHR, the “Sample B (Probe) Signal” value is 3050 fluorescence intensity units and the “log2 (Sample B/Sample A)” value was 2.46.

For Ac-LFKLKQND, the “Sample B (Probe) Signal” value was 1860 fluorescence intensity units and the “log2 (Sample B/Sample A)” value was determined as 2.34.

Turning to Ac-YHNYLLHP, the “Sample B (Probe) Signal” value is 1310 fluorescence intensity units and the “log2 (Sample B/Sample A)” value is 2.45.

For Ac-PFKLKQGN, the “Sample B (Probe) Signal” value is 6980 fluorescence intensity units and the “log2 (Sample B/Sample A)” value is 2.2.

Consider Ac-HFKLKQGG, for which the “Sample B (Probe) Signal” value is 3110 fluorescence intensity units and the “log2 (Sample B/Sample A)” value came to 2.28.

With Ac-LILLQQLD, the “Sample B (Probe) Signal” value was 1250 fluorescence intensity units and the “log2 (Sample B/Sample A)” value turned out to be 2.82.

In the case of Ac-WGKLKQGE, the “Sample B (Probe) Signal” value is 1230 fluorescence intensity units and the “log2 (Sample B/Sample A)” value was found to be 2.56.

For Ac-ALNFSLNW, the “Sample B (Probe) Signal” value is 662 fluorescence intensity units and the “log2 (Sample B/Sample A)” value worked out at 2.12.

Ac-PWKLKQDP: the “Sample B (Probe) Signal” value is 1340 fluorescence intensity units and the “log2 (Sample B/Sample A)” value was found to be 2.76.

For Ac-HRSYPRVY, the “Sample B (Probe) Signal” value is 2450 fluorescence intensity units and the “log2 (Sample B/Sample A)” value was 2.31.

Regarding Ac-AHNYLLEH, the “Sample B (Probe) Signal” value is 619 fluorescence intensity units and the “log2 (Sample B/Sample A)” value was determined as 2.42.

Consider Ac-IFLLQQDN, for which the “Sample B (Probe) Signal” value is 1010 fluorescence intensity units and the “log2 (Sample B/Sample A)” value is 2.08.

Regarding Ac-HNSYPRNE, the “Sample B (Probe) Signal” value is 802 fluorescence intensity units and the “log2 (Sample B/Sample A)” value amounted to 2.48.

As for Ac-FWNMYLNP, the “Sample B (Probe) Signal” value was 775 fluorescence intensity units and the “log2 (Sample B/Sample A)” value was 2.29.

Regarding Ac-HNNYLLNN, the “Sample B (Probe) Signal” value is 964 fluorescence intensity units and the “log2 (Sample B/Sample A)” value was 2.34.

In the case of Ac-WRSYPRRA, the “Sample B (Probe) Signal” value was 2610 fluorescence intensity units and the “log2 (Sample B/Sample A)” value was determined as 2.07.

In the case of Ac-RLLHYGSY, the “Sample B (Probe) Signal” value was 1200 fluorescence intensity units and the “log2 (Sample B/Sample A)” value was 2.05.

Consider Ac-FFNFSLPA, for which the “Sample B (Probe) Signal” value is 1040 fluorescence intensity units and the “log2 (Sample B/Sample A)” value turned out to be 2.66.

Ac-NNSYPRHR: the “Sample B (Probe) Signal” value was 3420 fluorescence intensity units and the “log2 (Sample B/Sample A)” value was found to be 2.23.

In the case of Ac-EESYPRDK, the “Sample B (Probe) Signal” value is 554 fluorescence intensity units and the “log2 (Sample B/Sample A)” value is 2.19.
